The supplement of paper PMC9170038

System: MS2 coat protein
Test: apparent KD of MS2 coat protein; designed switch direction (-1 OFF switch, 1 ON switch): -1; higher = weaker reporter binding
Procedure, shortened: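 Stalled E. coli RNA polymerase transcribed designed RNA switches on Illumina chips, which were then titrated with SNAP-549-labelled MS2 coat protein, doubling from 0.7 or 1.5 nM to 3 µM. Steps lasted from 0.8–1.5 h at the lowest concentration to 10–20 min at the highest. The apparent KD is each design's median over clusters of curve-fitted normalised fluorescence.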

[1] = input ligand: microRNA oligo, concentration not stated
[2] = Eterna round: R95, input ligand: FMN 200 uM
[3] = Eterna round: R95, input ligand: microRNA oligo, concentration not stated
[4] = Eterna round: R95, input ligand: none

Sequence | apparent KD of MS2 coat protein (input ligand: FMN 200 uM) [µM] | apparent KD of MS2 coat protein (input ligand: none) [µM] | apparent KD of MS2 coat protein [3] [µM] | further results
AAAUGAAAGGCAGGAUAUCGUACUGAUCUUUGUCGAGAAGGGCCAGGGUCCCUCGGCUACAUGAGGAUCACCCAUGUUAAAAGA [Onabele] (Eterna round: R96, puzzle: Exclusion NG 1) | 0.0569 | 0.0362 |  | apparent KD of MS2 coat protein [1]: 0.0294 µM
UUCGUGCAGCUUUGCUGUACGAGUACAUGAGGAUCACCCAUGUAGGAUAUGGUACGCUUUGCGUGCCAGAAGGACGUGCGUUAG [salish99_ExNG3_r04_002] (Eterna round: R96, puzzle: Exclusion NG 3) | 0.0734 | 0.0421 |  | apparent KD of MS2 coat protein [1]: 0.0341 µM
GCACUGGCAGGAUAUACAUGAGGAUCACCCAUGUGAUCCCUUAGGUACAAAAGUACCAGUAGAAGGGCCUGUGC [Omei Ex3 Model Bachelor's Dilema v50] (Eterna round: R97, puzzle: Exclusion 3) | 0.315 | 0.564 |  | 
AAAAGAGUAGGAUAUCUGACGCGAAACAUGAGGAUCACCCAUGUAGGGCGGUCCUGCUUAAGAGAAGGGCUCUAAU [Arorxebile] (puzzle: Exclusion 5) |  |  | 0.119 | apparent KD of MS2 coat protein [2]: 0.155 µM; apparent KD of MS2 coat protein [4]: 0.164 µM
GAUUGAGAGCAGGAUAUCAUAGAAAUGUAUGAAUGAGAAGGGCUCACAUGAGGAUCACCCAUGUGGUCCUAGAU [JL Dibiri mod 18] (puzzle: Exclusion 6) |  |  | 0.0219 | 
AUCAUGCAGUAGGAUAUCGAUCCACAAUAUGAACGAGAAGGGCUGACAUGAGGAUCACCCAUGUGCGUCCGAAG [Becebe] (Eterna round: R97, puzzle: Exclusion 6) | 0.0167 | 0.019 |  | 
GUUAGACAUGAGGAUCACCCAUGUGAGGAUAUGAUGAGAAUGAAGUAAGAAGUAGGAAUCAGAAGGCACAUAUG [Mat - Mod of Hyphema D31] (puzzle: Exclusion 1) |  |  | 0.106 | apparent KD of MS2 coat protein [2]: 0.177 µM; apparent KD of MS2 coat protein [4]: 0.132 µM
AGUCAGUCAGGAUAUCAAAUCCGUGGACCUUACGAUGCGGCUGAGAAGGGACAUGAGGAUCACCCAUGUUGGGU [Eternabot (L2) Solution 27] (Eterna round: R97, puzzle: Exclusion 4) | 0.0608 | 0.0665 |  | 
GCCCGGGCAGGAUAUACAAUGAUCGUGAGAAAUCGUGAUCGACAUGAGGAUCACCCAUGUAGAAGGGCCCGGGC [-34.5, -32.3 kcal, A 28% 2] (Eterna round: R97, puzzle: Exclusion 2) | 0.116 | 0.0505 |  | 
AGGCGGAAAGUAAGGAUAUCUUGACCAAAGGGUUGAGAGAAGGUACAUGAGGAUCACCCAUGUGUUUACCGCCA [Shrinking Claw (Vienna2)] (Eterna round: R97, puzzle: Brourd's mod of Exclusion 4) | 0.0124 | 0.0129 |  | 
GUGUAAUGUGAGGAUAUGUGUUUCGUUAGCUGCACAGAAGGCACAACAUGAGGAUCACCCAUGUGGGCAGGGCC [Eternabot (L1) Solution 10] (Eterna round: R97, puzzle: Exclusion 6) | 0.0594 | 0.019 |  | 
UUGUUAUAUGUAGGAUAUGCAUAUUGUUAUUAUGCAGAAGGACAUGAGGAUCACCCAUGUAUAUUAUUAUUAUAUAUUAUAUAU [Title] (Eterna round: R96, puzzle: Exclusion NG 1) |  |  |  | apparent KD of MS2 coat protein [1]: 0.0225 µM
UUAAUGUGAGGAUAUCAGGUGUGCUAGCGUACUGGUACAUCUGAGAAGGCACAUGAGGAUCACCCAUGUUUCUU [JL-ex4-3.23 Brourd mod] (puzzle: Exclusion 4) |  |  | 0.0267 | 
